# Measurements taken from paper PMC6222848, “Spatial Overlap of Claudin- and Phosphatidylinositol Phosphate-Binding Sites on the First PDZ Domain of Zonula Occludens 1 Studied by NMR” (Molecules : A Journal of Synthetic Chemistry and Natural …, 2018).
# B1: GST-tagged mouse ZO-1(PDZ1) (residues 18–110) [mouse] / His6-tagged thioredoxin (Trx) fusion protein of mouse CLD-3 C-terminus (Trx-CLD3, residues 210–219) [mouse] (parent complex)
# chain 1: IWEQHTVTLHRAPGFGFGIAISGGRDNPHFQSGETSIVISDVLKGGPAEGQLQENDRVAMVNGVSMDNVEHAFAVQQLRKSGKNAKITIRRKK
# chain 2: GTAYDRKDYV
# Variants of: B1
# Test: SPR; absence of phytic acid (gray bar); parent: 1.2e+03; read off a plot
row,Variant,response [RU]
1,chain 1 IWEQHTVTLHRAPGFGAGIAISGGRDNPHFQSGETSIVISDVLKGGPAEGQLQENDRVAMVNGVSMDNVEHAFAVQQLRKSGKNAKITIRRKK [chain 1 F17A],~15
2,chain 1 IWEQHTVTLHRAPGFGFGIAISGGRDNPHFQSGETSIVISAVLKGGPAEGQLQENDRVAMVNGVSMDNVEHAFAVQQLRKSGKNAKITIRRKK [chain 1 D41A],~110
3,chain 1 IWEQHTVTLHRAPGFGFGIAISGGRDNPHFQSGETSIVISDVLKGGPAEGQLQENDRVAMVNGVSMDNVEHAFAAQQLRKSGKNAKITIRRKK [chain 1 V75A],~22
4,chain 1 IWEQHTVTLHRAPGFGFGIAISGGRDNPHFQSGETSIVISDVAKGGPAEGQLQENDRVAMVNGVSMDNVEHAFAVQQLRKSGKNAKITIRRKK [chain 1 L43A],~28
5,chain 1 IWEQHTVTLHRAPGFGFGIAISGGRDNPHFQSGETSIVISDVLKGGPAEGQLQENDRVAMVNGVSMDNVEHAFAVQQLAKSGKNAKITIRRKK [chain 1 R79A],~40
